According to the RNAGym collection of RNA variant scans (doi:10.7554/elife.90254):

B1: LINE1-full (parent)
chain: UACGUAGGUGGUUUUCCCCUGAUAGUGCUAAGGGGGCCUGGAAGUUUGGACUGGGCAGAGCUCAACACAGCGUGGCAAAGUGGCUGUGGCUAGACUGCCUCUCUGGAUUCCUCGUCACUCAGCAGGGCAUCUCUGAGAGAAAUGCC

Variants of: B1
Experiment: self-cleavage, relative activity (ratio to wild type); higher = more cleavage; in vitro, sequencing; the parent is a self-cleaving ribozyme
UACGUAGGUGGUUUUCCCCUGAUAGUGCUAAGGGGGCCUGGAAGUUUGGACUGGGCAGAGCUCAACACCGCGUGGCAAAGUGGCUGUGGCUAGACUGCCUCUCUGGAUUCCUCGUCACUCAGCAGGGCAUCUCUGAGAGAAAGGCC [A69C U143G] showed a self-cleavage of 0. With UACGUAGGUGGUUUUCCCCUGAUAGUGCUAAGGGGGCCUGGAAGUUUGGACUGGGCAGAGCUCAACACCGCGUGGCAAAGUGGCUGUGGCUAGACUGCCUCUCUGGAUUCCUCGUCACUCAGCAGGGCAUCUCUGAGAGAAAAGCC [A69C U143A] the self-cleavage was 0.07. Variant UACGUAGGUGGUUUUCCCCUGAUAGUGCUAAGGGGGCCUGGAAGUUUGGACUGGGCAGAGCUCAACACGGCGUGGCAAAGUGGCUGUGGCUAGACUGCCUCUCUGGGUUCCUCGUCACUCAGCAGGGCAUCUCUGAGAGAAAUGCC [A69G A107G] has a self-cleavage of 0.37. For UACGUAGGUGGUUUUCCCCUGAUAGUGCUAAGGGGGCCUGGAAGUUUGGACUGGGCAGAGCUCAACAUAGCGUGGCAAAGUGGCUGUGGCUAGACUGCCUCUCUGGAUUCCCCGUCACUCAGCAGGGCAUCUCUGAGAGAAAUGCC [C68U U112C], the self-cleavage was 0.06. Work on UACGUAGGUGGUUUUCCCCUGAUAGUGCUAAGGGGGCCUGGAAGUUUGGACUGGGCAGAGCUCAACACGGCGUGGCAAAGUGGCUGUGGCUAGACUGCCUCUCUGGAUUCCUCGUCACUCAGCGGGGCAUCUCUGAGAGAAAUGCC [A69G A124G] yielded a self-cleavage of 0.32. UACGUAGGUGGUUUUCCCCUGAUAGUGCUAAGGGGGCCUGGAAGUUUGGACUGGGCAGAGCUCAACACCGCGUGGCAAAGUGGCUGUGGCUAGACUGCCUCUCUGGAUUCCUCGUCACACAGCAGGGCAUCUCUGAGAGAAAUGCC [A69C U119A] showed a self-cleavage of 0.04. For UACGUAGGUGGUUUUCCCCUGAUAGUGCUAAGGGGGCCUGGAAGUUUGGACUGGGCAGAGCUCAACAUAGCGUGGCAAAGCGGCUGUGGCUAGACUGCCUCUCUGGAUUCCUCGUCACUCAGCAGGGCAUCUCUGAGAGAAAUGCC [C68U U81C], the self-cleavage was 0.18. With UACGUAGGUGGUUUUCCCCUGAUAGUGCUAAGGGGGCCUGGAAGUUUGGACUGGGCAGAGCUCAACAUAGCGUGGCAAAGAGGCUGUGGCUAGACUGCCUCUCUGGAUUCCUCGUCACUCAGCAGGGCAUCUCUGAGAGAAAUGCC [C68U U81A] the self-cleavage was 0.18. Work on UACGUAGGUGGUUUUCCCCUGAUAGUGCUAAGGGGGCCUGGAAGUUUGGACUGGGCAGAGCUCAACACGGCGUGGCAAAGUGGCUGUGGCUAGACUGCCUCUCUGGAUUCCUCGUCGCUCAGCAGGGCAUCUCUGAGAGAAAUGCC [A69G A117G] yielded a self-cleavage of 0.5. In the case of UACGUAGGUGGUUUUCCCCUGAUAGUGCUAAGGGGGCCUGGAAGUUUGGACUGGGCAGAGCUCAACACGGCGUGGCAAAGUGGCUGUGGCUAGACUGCCUCUCUGGAUUCCUCGUCUCUCAGCAGGGCAUCUCUGAGAGAAAUGCC [A69G A117U], the self-cleavage is reported as 0.64. UACGUAGGUGGUUUUCCCCUGAUAGUGCUAAGGGGGCCUGGAAGUUUGGACUGGGCAGAGCUCAACACCGCGUGGCAAAGUGGCUGUGGCUAGACUGCCUCUCUGGAUUCCUCGUCACUCAGCAGGGCAUCUCUGAGGGAAAUGCC [A69C A138G] gave a self-cleavage of 0.16. For UACGUAGGUGGUUUUCCCCUGAUAGUGCUAAGGGGGCCUGGAAGUUUGGACUGGGCAGAGCUCAACAUAGCGUGGCAAAGUGGCUGCGGCUAGACUGCCUCUCUGGAUUCCUCGUCACUCAGCAGGGCAUCUCUGAGAGAAAUGCC [C68U U87C], the self-cleavage was 0.02. In the case of UACGUAGGUGGUUUUCCCCUGAUAGUGCUAAGGGGGCCUGGAAGUUUGGACUGGGCAGAGCUCAACAUAGCGUGGCAAAGUGGCUGUGGCUAGACUGCCUCUCUGGAUUCCUCGUCACUCAGCAGGGCAUCUCUGAGAGAAGUGCC [C68U A142G], the self-cleavage is reported as 0.14. With UACGUAGGUGGUUUUCCCCUGAUAGUGCUAAGGGGGCCUGGAAGUUUGGACUGGGCAGAGCUCAACAUAGCGUGGCAAAGUGGCUGUGGCUAGACUGCCUCUCUGGAUUCCUCGUCACUCAUCAGGGCAUCUCUGAGAGAAAUGCC [C68U G122U] the self-cleavage was 0.21. Work on UACGUAGGUGGUUUUCCCCUGAUAGUGCUAAGGGGGCCUGGAAGUUUGGACUGGGCAGAGCUCAACACCGCGUGGCAAAGUGGCUGUGGCUAGACUGCCUCUCUGGAUUCCUCGUCGCUCAGCAGGGCAUCUCUGAGAGAAAUGCC [A69C A117G] yielded a self-cleavage of 0.11. UACGUAGGUGGUUUUCCCCUGAUAGUGCUAAGGGGGCCUGGAAGUUUGGACUGGGCAGAGCUCAACACGGCGUGGCAUAGUGGCUGUGGCUAGACUGCCUCUCUGGAUUCCUCGUCACUCAGCAGGGCAUCUCUGAGAGAAAUGCC [A69G A78U] showed a self-cleavage of 0.63. With UACGUAGGUGGUUUUCCCCUGAUAGUGCUAAGGGGGCCUGGAAGUUUGGACUGGGCAGAGCUCAACACGGCGUGGCAACGUGGCUGUGGCUAGACUGCCUCUCUGGAUUCCUCGUCACUCAGCAGGGCAUCUCUGAGAGAAAUGCC [A69G A79C] the self-cleavage was 0.17. For UACGUAGGUGGUUUUCCCCUGAUAGUGCUAAGGGGGCCUGGAAGUUUGGACUGGGCAGAGCUCAACACCGCGUGGCAAAGUGGCUGUGGCUAGACUGCCUCUCCGGAUUCCUCGUCACUCAGCAGGGCAUCUCUGAGAGAAAUGCC [A69C U104C], the self-cleavage was 0.22. Variant UACGUAGGUGGUUUUCCCCUGAUAGUGCUAAGGGGGCCUGGAAGUUUGGACUGGGCAGAGCUCAACAUAGCGUGGCAAAGUGGCUGUAGCUAGACUGCCUCUCUGGAUUCCUCGUCACUCAGCAGGGCAUCUCUGAGAGAAAUGCC [C68U G88A] has a self-cleavage of 0.05. In the case of UACGUAGGUGGUUUUCCCCUGAUAGUGCUAAGGGGGCCUGGAAGUUUGGACUGGGCAGAGCUCAACAUAGCGUGGCAAAGUGGCUGUGGCUAGACUGCCUCUCUGGAAUCCUCGUCACUCAGCAGGGCAUCUCUGAGAGAAAUGCC [C68U U108A], the self-cleavage is reported as 0.2. UACGUAGGUGGUUUUCCCCUGAUAGUGCUAAGGGGGCCUGGAAGUUUGGACUGGGCAGAGCUCAACAUAGCGUGGCAAAGUGGCUGUGGCUAGACUGCCUCUCUGGACUCCUCGUCACUCAGCAGGGCAUCUCUGAGAGAAAUGCC [C68U U108C] showed a self-cleavage of 0.32. In the case of UACGUAGGUGGUUUUCCCCUGAUAGUGCUAAGGGGGCCUGGAAGUUUGGACUGGGCAGAGCUCAACACGGCGUGGCAAAGUGGCUGUGGCUAGACUGCCUCUCUGGAUUCCUCGUCACUCGGCAGGGCAUCUCUGAGAGAAAUGCC [A69G A121G], the self-cleavage is reported as 0.6. UACGUAGGUGGUUUUCCCCUGAUAGUGCUAAGGGGGCCUGGAAGUUUGGACUGGGCAGAGCUCAACACGGCGUGGCAAAGUGGCUGUGGCUAGACUGCCUCUCUGGAUUCCUCGUCACUCUGCAGGGCAUCUCUGAGAGAAAUGCC [A69G A121U] showed a self-cleavage of 0.62. UACGUAGGUGGUUUUCCCCUGAUAGUGCUAAGGGGGCCUGGAAGUUUGGACUGGGCAGAGCUCAACACGGCGUGGCAAAGUGGCUGUGGCUAGACUGCCUCUCUGGAUUCCUCGUCACUCCGCAGGGCAUCUCUGAGAGAAAUGCC [A69G A121C] gave a self-cleavage of 0.51. With UACGUAGGUGGUUUUCCCCUGAUAGUGCUAAGGGGGCCUGGAAGUUUGGACUGGGCAGAGCUCAACACCGCGUGGCAAAGUGGCUGUGGCUAAACUGCCUCUCUGGAUUCCUCGUCACUCAGCAGGGCAUCUCUGAGAGAAAUGCC [A69C G93A] the self-cleavage was 0.01. UACGUAGGUGGUUUUCCCCUGAUAGUGCUAAGGGGGCCUGGAAGUUUGGACUGGGCAGAGCUCAACACCGCGUGGCAAAGUGGCUGUGGCUAGACUGCCUCUCUGGAUUCCUCGUCACUCAGCAGGGCAUCUCUGAGAGAAAUGCC [A69C] showed a self-cleavage of 0.07. Work on UACGUAGGUGGUUUUCCCCUGAUAGUGCUAAGGGGGCCUGGAAGUUUGGACUGGGCAGAGCUCAACACGGCGUGGCAAAGUGGCUGUGGCUAGACUGCCUCUCUGGAUUCCUCGUCACUCAGCAGGGCAUCUCUGAGAGAAAUGCC [A69G] yielded a self-cleavage of 0.5. UACGUAGGUGGUUUUCCCCUGAUAGUGCUAAGGGGGCCUGGAAGUUUGGACUGGGCAGAGCUCAACACCGCGUGGCAAAGUGGCUGUGGCUAGACUGCCUCUCUGGAUUCCCCGUCACUCAGCAGGGCAUCUCUGAGAGAAAUGCC [A69C U112C] showed a self-cleavage of 0. UACGUAGGUGGUUUUCCCCUGAUAGUGCUAAGGGGGCCUGGAAGUUUGGACUGGGCAGAGCUCAACACCGCGUGGCUAAGUGGCUGUGGCUAGACUGCCUCUCUGGAUUCCUCGUCACUCAGCAGGGCAUCUCUGAGAGAAAUGCC [A69C A77U] gave a self-cleavage of 0.09. Work on UACGUAGGUGGUUUUCCCCUGAUAGUGCUAAGGGGGCCUGGAAGUUUGGACUGGGCAGAGCUCAACACGGCGUGGCAAAGUGGCUGUGGCUAGACUGCCUCUCUGGAUUCCUCGUCACUCAGCAGGGCAUCUCUGGGAGAAAUGCC [A69G A136G] yielded a self-cleavage of 0.42. Variant UACGUAGGUGGUUUUCCCCUGAUAGUGCUAAGGGGGCCUGGAAGUUUGGACUGGGCAGAGCUCAACACCGAGUGGCAAAGUGGCUGUGGCUAGACUGCCUCUCUGGAUUCCUCGUCACUCAGCAGGGCAUCUCUGAGAGAAAUGCC [A69C C71A] has a self-cleavage of 0.16. Work on UACGUAGGUGGUUUUCCCCUGAUAGUGCUAAGGGGGCCUGGAAGUUUGGACUGGGCAGAGCUCAACACCGCGUGGCAAAGUGGCUGUGGCUAGACUGCCUCUCUGGAUUCCUCGUCACUCAGCAGGGCAUCUCUGAGAGAAGUGCC [A69C A142G] yielded a self-cleavage of 0.11. With UACGUAGGUGGUUUUCCCCUGAUAGUGCUAAGGGGGCCUGGAAGUUUGGACUGGGCAGAGCUCAACAUAGCGUGGCAAAGUGGCUGUGGCUAGACUGCCUCUCUGGAUUCCUCGUCACUCAGCAGGGCAUCUCCGAGAGAAAUGCC [C68U U134C] the self-cleavage was 0.17. For UACGUAGGUGGUUUUCCCCUGAUAGUGCUAAGGGGGCCUGGAAGUUUGGACUGGGCAGAGCUCAACAUAGCGUAGCAAAGUGGCUGUGGCUAGACUGCCUCUCUGGAUUCCUCGUCACUCAGCAGGGCAUCUCUGAGAGAAAUGCC [C68U G74A], the self-cleavage was 0.2. Variant UACGUAGGUGGUUUUCCCCUGAUAGUGCUAAGGGGGCCUGGAAGUUUGGACUGGGCAGAGCUCAACAUAGCGUGGCAAAGUGGCUGUGGCUAGACUGCCUCUCUGGAUUCCUCGACACUCAGCAGGGCAUCUCUGAGAGAAAUGCC [C68U U115A] has a self-cleavage of 0.2. Work on UACGUAGGUGGUUUUCCCCUGAUAGUGCUAAGGGGGCCUGGAAGUUUGGACUGGGCAGAGCUCAACACGGCGUGGCAAAGUGGCUGUGGCUAGACUGCCUCUCUGGAUUCCUCGUCACUCAGCAGGGCUUCUCUGAGAGAAAUGCC [A69G A129U] yielded a self-cleavage of 0.58. UACGUAGGUGGUUUUCCCCUGAUAGUGCUAAGGGGGCCUGGAAGUUUGGACUGGGCAGAGCUCAACAUAGCGUGGCAAAGUGGCUGUGGCUAGACUGCCUCUCUGGAUUCCUCGUCACUCAGGAGGGCAUCUCUGAGAGAAAUGCC [C68U C123G] gave a self-cleavage of 0.1. In the case of UACGUAGGUGGUUUUCCCCUGAUAGUGCUAAGGGGGCCUGGAAGUUUGGACUGGGCAGAGCUCAACACCGCGUGGCAAAGUGGCUGUGGCUAGACUGCCUCUCUGGAUUCCUCGUCACUCAGCAGGGCACCUCUGAGAGAAAUGCC [A69C U130C], the self-cleavage is reported as 0.36. UACGUAGGUGGUUUUCCCCUGAUAGUGCUAAGGGGGCCUGGAAGUUUGGACUGGGCAGAGCUCAACAUAGCGUGGCAAAGUGGCUGUGGCUAGACUGCCUCUCUGGAUACCUCGUCACUCAGCAGGGCAUCUCUGAGAGAAAUGCC [C68U U109A] showed a self-cleavage of 0.21.
